From patent US20230203471A1, “METHOD AND PLATFORM FOR DISRUPTING INTRACELLULAR MICROTUBULES” (National Tsing Hua University, priority 2021, published 2023)

Legend:
[1] = molecular target: intracellular microtubules (MTs)
[2] = molecular target: MT-binding domain of ensconsin-cyan fluorescent protein-FKBP-rapamycin binding domain (EMTB-CFP-FRB) (Artificial Sequence); test: FRET live-cell imaging in co-transfected HeLa cells, 100 nM rapamycin
[3] = system: ciliary axonemes and primary cilia in NIH3T3 cells; test: Disruption of primary cilia in serum-starved NIH3T3 cells (live-cell imaging); type: cell-based, mouse; conditions: G0 NIH3T3 cells, CFP-FRB-MAP4m, rapamycin 100 nM
Protocol: The procedures of cell culture and transfection are as follows. African green monkey kidney cell line COS7 (CRL-1651), cervical cancer cell line HeLa (CCL-2), human osteosarcoma cell line U2OS (HTB-96), human embryonic kidney cell line HEK293T (CRL-3216), and mouse embryonic fibroblasts NIH3T3 cells (CRL-1658) were maintained at 37° C., 5% CO2, and 95% humidity in Dulbecco’s modified Eagle’s medium (DMEM) supplemented with 10% fetal bovine serum (FBS), and penicillin and streptomycin (Corning). To induce ciliogenesis, NIH3T3 cells were serum starved for 24 hr. COS7 cells were transfected with plasmid DNAs by using TurboFect transfection reagents (Thermo Fisher). HeLa, U2OS, HEK293T, and NIH3T3 cells were transfected with FuGENE HD (Promega). Transfected cells were incubated for 24-48 hr prior to imaging and other experiments.
The procedures of live-cell imaging are as follows. Live transfected cells cultured on poly(d-lysine)-coated glass coverslips (Hecht Assistent) were treated with either 100 nM rapamycin for rapid induction of protein dimerization and translocation or MT-targeting agents (10 µM nocodazole or 500 µM colchicine) during imaging. Live-cell imaging was conducted on a Nikon T1 inverted fluorescence microscope (Nikon) with a 60× oil objective (Nikon), a Prime camera (Photometrics), and 37° C., 5% CO2 heat stage (Live Cell Instrument). […]

[4] = system: centrosomes in HeLa cells; test: Effect of MT disruption treatment on PACT-labeled centrosomes in HeLa cells; type: cell-based; conditions: MT disruption treatment for 1 hr
Protocol: In FIG. 5O, HeLa cells co-transfected with EMTB—CFP—FRB (blue), dNSpastin3Q-YFP-FKBP (green), and PACT-mCh (a centrosomal marker; red) were treated with rapamycin (100 nM) and imaged; dotted lines indicate the cell boundary; insets show higher-magnification images of the centrosome regions; scale bar, 10 µm. […] Data are shown as the mean ± S.E.M.

[5] = system: mitotic spindles and intercellular bridges in HeLa cells; test: Disruption of mitotic spindles and intercellular bridges in synchronized HeLa cells; type: cell-based; conditions: CFP-FRB-MAP4m, rapamycin 100 nM
Protocol: The procedures of cell synchronization are as follows. Plasmid DNA (i.e., DNA construct) transfection was carried out 20-24 hr prior to cell cycle synchronization. For synchronization, HeLa cells were treated with 2 mM thymidine (Sigma) for 16-18 hr to induce arrest at G1/S phase and then were treated with 2.5 ng/ml RO3306 (a selective ATP-competitive inhibitor of CDK1)(Sigma) for 12 hr to induce arrest at G2/M phase. After being washed with warm DMEM, cells were incubated with DMEM and 10% FBS at 37° C., 5% CO2 for 30-60 min to enrich the population of metaphase and telophase cells.
FIGS. 5K to 5N show rapid disruption of mitotic spindles and intercellular bridges. In FIG. 5K, HeLa cells co-transfected with H2B—mCherry (H2B—mCh; a chromosome marker; red), CFP—FRB—MAP4m (a marker of mitotic spindles; blue), and dNSpastin3Q-YFP-FKBP (green) were synchronized in metaphase and treated with rapamycin (100 nM) to induce dNSpastin3Q-YFP-FKBP recruitment to mitotic spindles; scale bar, 10 µm. In FIG. 5L, HeLa cells co-transfected with H2B—mCherry (red), CFP—FRB—MAP4m (intercellular bridges; blue), and dNSpastin3Q-YFP-FKBP (green) were treated with rapamycin (100 nM) to induce dNSpastin3Q-YFP-FKBP recruitment to intercellular bridges; arrows indicate the intercellular bridges; scale bar, 10 µm. […] Data are shown as the mean ± S.E.M. Dotted lines indicate the cell boundaries.

spastin = molecular target: T1, spastin (Mus musculus, UniProt Q9QYY8, K308Q/K309Q/K310Q); test: Reversal of MT disruption by spastin inhibition and MT regrowth in HeLa cells; type: cell-based; conditions: regrowth in cytosol (acentrosome) after spastazoline
T1 construct: expressed in transfected cells; host or cells: HeLa (CCL-2)
T1 sequence (Q9QYY8 with tags, fused parts or gaps K308Q/K309Q/K310Q): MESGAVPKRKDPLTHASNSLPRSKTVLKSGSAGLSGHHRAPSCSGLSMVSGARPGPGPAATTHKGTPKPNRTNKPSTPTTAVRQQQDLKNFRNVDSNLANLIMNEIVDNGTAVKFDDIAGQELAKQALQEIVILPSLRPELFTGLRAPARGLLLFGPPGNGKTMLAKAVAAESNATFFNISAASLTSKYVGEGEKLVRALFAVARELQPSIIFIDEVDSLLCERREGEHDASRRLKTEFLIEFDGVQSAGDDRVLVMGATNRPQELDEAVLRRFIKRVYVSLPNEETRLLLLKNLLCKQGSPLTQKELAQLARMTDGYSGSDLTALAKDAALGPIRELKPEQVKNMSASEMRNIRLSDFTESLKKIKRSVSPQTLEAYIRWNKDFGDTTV
Protocol: FIGS. 2S to 2U show inhibition of spastin activity reverses MT disruption. In FIG. 2S, HeLa cells co-transfected with EMTB—CFP—FRB (black) and dNSpastin3Q-YFP-FKBP (green) were pre-treated with rapamycin for 28 min to induce acute MT disassembly; spastazoline (10 µM), a spastin inhibitor, was then added to the cultures to halt the MT disruption system; arrows indicate the centrosome-derived MTs; scale bar, 10 µm. […] Data (red) are shown as the mean ± SD. A Student’s t-test was performed to generate the indicated p-value.
Intriguingly, nascent MTs from the fragments derived from dNspastin3Q-mediated cleavage assembled at a polymerization rate of 0.92 ± 0.04 µm/sec, which was slightly slower than the regrowth rate of 1.17 ± 0.07 µm/sec for MTs from centrosomes (see FIG. 2U). […] In particular, microtubule filaments are composed of microtubule molecules. If they are only disassembled into microtubule molecules and the raw materials are still there, they would have the opportunity to quickly assemble them back. But if the microtubule molecules are degraded and the raw materials are gone, they can’t be quickly reassembled. In summary, rapid recruitment of dNSpastin3Q-YFP-FKBP onto MTs efficiently triggered MT disassembly in living cells upon dimerization induction.

[6] = molecular target: EMTB-YFP-CIBN (Artificial Sequence); test: live-cell imaging in co-transfected COS7 cells, local blue light
EMTB-YFP-CIBN (Artificial Sequence), sequence (chain, as listed by the source): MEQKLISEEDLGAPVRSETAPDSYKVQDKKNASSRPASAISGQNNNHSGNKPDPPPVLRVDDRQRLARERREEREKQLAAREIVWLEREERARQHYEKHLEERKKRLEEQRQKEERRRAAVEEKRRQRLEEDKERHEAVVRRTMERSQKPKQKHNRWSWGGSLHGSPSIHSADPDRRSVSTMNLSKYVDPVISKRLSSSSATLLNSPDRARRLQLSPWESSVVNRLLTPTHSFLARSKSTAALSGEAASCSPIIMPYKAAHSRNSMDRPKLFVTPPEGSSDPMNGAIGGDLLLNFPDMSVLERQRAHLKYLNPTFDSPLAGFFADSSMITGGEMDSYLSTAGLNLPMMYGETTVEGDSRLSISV

[7] = molecular target: EMTB-YFP-CIBN (Artificial Sequence); test: live-cell imaging in co-transfected COS7 cells, after blue light
[8] = system: EMTB-YFP-CIBN-labeled MTs in COS7 cells; test: Blue-light-induced recruitment of Cry2 proteins onto EMTB-YFP-CIBN-labeled MTs and MT disassembly; type: cell-based, African green monkey; conditions: COS7 cells
Protocol: The procedures of photostimulation are as follows. COS7 cells were plated on poly(d-lysine)-coated coverslips and cultured in six-well plates (Thermo Scientific) for 48 hr. Before imaging, cells were incubated with SPY650-tubulin (1000-fold dilution; Spirochrome) at 37° C. for 1 hr. Local photostimulation was carried out with a fluorescence microscope (Nikon) equipped with a digital micromirror device, polygon 400 (MIGHTEX), and a 488-nm light source. Cells were illuminated with the blue light (5 sec on/1 sec off; 1.6 nW/µm^2) for the indicated duration. The mCherry and SPY650-tubulin were simultaneously imaged during photostimulation using Nikon element AR software.
The inventors next tried to use an optogenetic system to trigger MT disassembly in a sub-cellular region of interest during a specific period of time. Cryptochrome 2 (Cry2) (SEQ ID NO:14) and CIBN (N-terminal 170 amino acids of CIB1) (SEQ ID NO:15), two blue light-sensitive dimerizing partners, were used in our MT-manipulating system. Cry2, which was tagged with the red fluorescent protein mCherry (mCh—Cry2), was rapidly translocated onto EMTB—YFP—CIBN-labeled MTs only in regions illuminated with light (T½ = 34.6 ± 7.58 sec) and dissociated from MTs to the cytosol when the light was off (T½ = 28.2 ± 4.88 sec; see FIGS. 6A and 6B).
FIGS. 6A and 6B show using light to disassemble MTs in a reversible and location-specific manner. In FIG. 6A, COS7 cells co-transfected with EMTB—YFP—CIBN and mCh—Cry2 (red) were incubated with SPY650-tubulin (SPY650-tub) to visualize MTs; the cells were illuminated by blue light within a specified region (indicated by the dotted circle) for the indicated time period; scale bar, 10 µm.
The inventors then used light to control spastin-mediated MT disassembly in a spatially and temporally specific manner. dNSpastin3Q tagged with mCh-Cry2 was co-expressed with EMTB—YFP—CIBN in COS7 cells. MTs were labeled with SPY650-tubulin in these experiments.
FIGS. 6C and 6D show using light to disassemble MTs in a reversible and location-specific manner. In FIG. 6C, COS7 cells co-transfected with EMTB-YFP-CIBN and dNSpastin3Q-mCh—Cry2 were incubated with SPY650-tubulin to visualize MTs; the cells were illuminated by blue light as in FIG. 6A; scale bar, 10 µm. […] Data are shown as the mean ± S.E.M.

MT-binding domain of ensconsin-cyan fluorescent protein-FKBP-rapamycin binding domain (EMTB-CFP-FRB) (Artificial Sequence), sequence (chain, as listed by the source): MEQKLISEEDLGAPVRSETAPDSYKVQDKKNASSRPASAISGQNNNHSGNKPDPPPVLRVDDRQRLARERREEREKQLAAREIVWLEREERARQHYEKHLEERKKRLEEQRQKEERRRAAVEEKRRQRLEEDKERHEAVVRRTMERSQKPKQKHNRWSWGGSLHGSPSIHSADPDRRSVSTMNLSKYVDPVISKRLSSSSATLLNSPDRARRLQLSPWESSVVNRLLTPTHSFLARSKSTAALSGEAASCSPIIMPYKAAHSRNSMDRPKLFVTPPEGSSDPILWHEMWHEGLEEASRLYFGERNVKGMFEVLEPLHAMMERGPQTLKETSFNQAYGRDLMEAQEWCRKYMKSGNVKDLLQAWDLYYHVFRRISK

dNSpastin-YFP-FKBP-C2 domain of Lactadherin (dNSpastin-YFP-FKBP-C2Lact) (enzyme)
half time of MT disruption (MT filament area) [1]: 53.1 min | T½ of translocation [2]: 55.4 s

B1: dNSpastin3Q: truncated spastin with three residues mutated to three glutamines, SEQ ID NO:6; used as tagged fusions (protein)
chain: MESGAVPKRKDPLTHASNSLPRSKTVLKSGSAGLSGHHRAPSCSGLSMVSGARPGPGPAATTHKGTPKPNRTNKPSTPTTAVRQQQDLKNFRNVDSNLANLIMNEIVDNGTAVKFDDIAGQELAKQALQEIVILPSLRPELFTGLRAPARGLLLFGPPGNGKTMLAKAVAAESNATFFNISAASLTSKYVGEGEKLVRALFAVARELQPSIIFIDEVDSLLCERREGEHDASRRLKTEFLIEFDGVQSAGDDRVLVMGATNRPQELDEAVLRRFIKRVYVSLPNEETRLLLLKNLLCKQGSPLTQKELAQLARMTDGYSGSDLTALAKDAALGPIRELKPEQVKNMSASEMRNIRLSDFTESLKKIKRSVSPQTLEAYIRWNKDFGDTTV
modifications: dNSpastin3Q
notes: used as tagged fusions
time to disassembly of axonemes and primary cilia [3]: ≤ 15 min | disruption of centrosomes [4]: did not disrupt centrosomes | disruption of mitotic spindles and intercellular bridges [5]: quickly disrupted these MT-based structures | polymerization rate of nascent MTs from fragments derived from cleavage (spastin): 0.92 ± 0.04 µm/sec

B2: Cry2 tagged with the red fluorescent protein mCherry (mCh-Cry2) (protein)
chain: MKMDKKTIVWFRRDLRIEDNPALAAAAHEGSVFPVFIWCPEEEGQFYPGRASRWWMKQSLAHLSQSLKALGSDLTLIKTHNTISAILDCIRVTGATKVVFNHLYDPVSLVRDHTVKEKLVERGISVQSYNGDLLYEPWEIYCEKGKPFTSFNSYWKKCLDMSIESVMLPPPWRLMPITAAAEAIWACSIEELGLENEAEKPSNALLTRAWSPGWSNADKLLNEFIEKQLIDYAKNSKKVVGNSTSLLSPYLHFGEISVRHVFQCARMKQIIWARDKNSEGEESADLFLRGIGLREYSRYICFNFPFTHEQSLLSHLRFFPWDADVDKFKAWRQGRTGYPLVDAGMRELRATGWMHNRIRVIVSSFAVKFLLLPWKWGMKYFWDTLLDADLECDILGWQYISGSIPDGHELDRLDNPALQGAKYDPEGEYIRQWLPELARLPTEWIHHPWDAPLTVLKASGVELGTNYAKPIVDIDTARELLAKAISRTREAQIMIGAA
T½ of translocation onto MTs under light [6]: 34.6 s | T½ of dissociation from MTs when the light was off [7]: 28.2 s | T½ of translocation onto EMTB-YFP-CIBN-labeled MTs in illuminated regions ([8]; blue light on): 34.6 ± 7.58 s | T½ of dissociation from MTs to the cytosol ([8]; light off): 28.2 ± 4.88 s | light-induced MT disassembly ([8]; local blue light illumination, SPY650-tubulin): did not lead to MT disassembly
